In the supplement of paper PMC10126150:
± gives the standard deviation of the averaged measurements.

System: ATP
Assay: switch fluorescence ratio, 500 uM ATP over buffer (Cy3 cluster intensity, sum of 5 cycles each) (fold (ratio)); higher = stronger signal-on switching upon ATP binding; sequences stand for … in TCGTCGGCAGCGTCAGATGTGTATAAGAGACAGTTTTTTTTTTTTTTTTTTTTTTTTT…TC
Details: aptamer strand: ATP DNA aptamer (quencher-CACCTGGGGGAGTATTGCGGAGGAAGG + anchor), 100 nM annealed; ATP concentration: 500 uM
Summary of the method: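 Imaging in selection buffer was followed by imaging after 15 min with 500 uM ATP at 22 °C, for Cy3-labelled switching-strand clusters annealed to 100 nM quencher-labelled ATP aptamer on a modified Illumina MiSeq flow-cell. Five of these buffer/ATP cycles ran, separated by NaOH stripping and re-annealing. The fluorescence ratio per cluster is summed target-cycle over summed buffer-cycle Cy3 intensity, averaged per switch-domain sequence; clusters outside 100-1000 RFU were removed.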
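Further: ATP exposure 15 min at 22 °C before imaging.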

Row | Sequence | switch fluorescence ratio
1 | TGTTTTAGTT | 1.01 ± 0.045
2 | TGTTTTATGG | 0.9871 ± 0.008
3 | TGTTTTATGT | 0.989 ± 0.032
4 | TGTTTTCGGT | 0.9899 ± 0.0097
5 | TGTTTTGAGT | 1.01 ± 0.013
6 | TGTTTTGATG | 1.04 ± 0.078
7 | TGTTTTGGTG | 1.01 ± 0.027
8 | TGTTTTTAGT | 0.9945 ± 0.0039
9 | TGTTTTTGTT | 1.01 ± 0.058
10 | TGTTTTTTAT | 1.02 ± 0.047
11 | TGTTTTTTTA | 0.979 ± 0.024
12 | TGTTTTTTTC | 1.06 ± 0.04
13 | TGTTTTTTTT | 0.999 ± 0.029
14 | TTAAAAAGTA | 1.03 ± 0.02
15 | TTAAAACCTT | 1.56 ± 0.46
16 | TTAAAACTCA | 1.04 ± 0.018
17 | TTAAAAGTAT | 1.01 ± 0.043
18 | TTAAAATAGA | 1.07 ± 0.1
19 | TTAAAATTAA | 0.975 ± 0.021
20 | TTAAACCCAC | 1.35 ± 0.023
21 | TTAAACGTAG | 1 ± 0.045
22 | TTAAACTCGG | 0.998 ± 0.053
23 | TTAAAGAGCT | 1.014 ± 0.0028
24 | TTAAAGGGGG | 1.02 ± 0.086
25 | TTAAAGGTAA | 1.018 ± 0.0094

Row | Sequence | switch fluorescence ratio
26 | TTAAAGGTAT | 1.11 ± 0.063
27 | TTAAAGTCCC | 0.993 ± 0.033
28 | TTAAAGTCGG | 1 ± 0.024
29 | TTAAAGTGAA | 0.988 ± 0.024
30 | TTAAATAAAA | 0.999 ± 0.028
31 | TTAAATCATT | 1.014 ± 0.0099
32 | TTAAATCGTG | 1.01 ± 0.054
33 | TTAAATCGTT | 1.036 ± 0.0076
34 | TTAAATGGGG | 0.978 ± 0.011
35 | TTAAATTAAT | 0.976 ± 0.047
36 | TTAAATTTGC | 1.03 ± 0.011
37 | TTAACACGGA | 1.01 ± 0.019
38 | TTAACAGGGG | 1.33 ± 0.26
39 | TTAACCCTTT | 1.02 ± 0.021
40 | TTAACCGGGT | 1.01 ± 0.057
41 | TTAACGTAGA | 1.04 ± 0.015
42 | TTAACTGGTA | 0.9904 ± 0.0016
43 | TTAACTGTTT | 0.992 ± 0.019
44 | TTAACTTGGG | 0.976 ± 0.013
45 | TTAACTTTCA | 1.04 ± 0.029
46 | TTAAGAAATT | 1.01 ± 0.048
47 | TTAAGAATGC | 1.07 ± 0.12
48 | TTAAGAGGTA | 1.002 ± 0.0039
49 | TTAAGATCAT | 0.969 ± 0.041
50 | TTAAGGAATT | 0.999 ± 0.036

Row | Sequence | switch fluorescence ratio
51 | TTAAGGACGT | 0.984 ± 0.016
52 | TTAAGGAGCG | 1.04 ± 0.016
53 | TTAAGGCAA | 1.125 ± 0.0087
54 | TTAAGGCGTT | 0.9791 ± 0.0071
55 | TTAAGGCTAT | 1.009 ± 0.0065
56 | TTAAGGGAAT | 1 ± 0.011
57 | TTAAGGGACC | 1.022 ± 0.0089
58 | TTAAGGGACG | 0.996 ± 0.11
59 | TTAAGGGATC | 0.957 ± 0.038
60 | TTAAGGGATG | 1.03 ± 0.043
61 | TTAAGGGATT | 0.993 ± 0.032
62 | TTAAGGGCAA | 1.06 ± 0.013
63 | TTAAGGGGCT | 1.01 ± 0.018
64 | TTAAGGGTCC | 0.984 ± 0.061
65 | TTAAGGTTGC | 0.989 ± 0.019
66 | TTAAGTAAGG | 1.03 ± 0.016
67 | TTAAGTACGG | 1.3 ± 0.016
68 | TTAAGTAGGA | 1 ± 0.017
69 | TTAAGTAGTA | 0.9679 ± 0.0025
70 | TTAAGTCAGT | 0.9717 ± 0.005
71 | TTAAGTGAAT | 0.979 ± 0.066
72 | TTAAGTGAC | 1.06 ± 0.028
73 | TTAAGTGCTC | 0.983 ± 0.031
74 | TTAAGTGGGG | 1.02 ± 0.011
75 | TTAAGTGGTG | 1.01 ± 0.017

Row | Sequence | switch fluorescence ratio
76 | TTAAGTGTAA | 0.9697 ± 0.0036
77 | TTAAGTTGAT | 0.988 ± 0.033
78 | TTAAGTTTAC | 1.01 ± 0.038
79 | TTAATAAAAA | 0.985 ± 0.028
80 | TTAATAAGGG | 1 ± 0.024
81 | TTAATACTGT | 1.03 ± 0.016
82 | TTAATAGTGG | 1.03 ± 0.073
83 | TTAATAGTGT | 1 ± 0.013
84 | TTAATATTGT | 1.029 ± 0.0062
85 | TTAATCCCCC | 1.04 ± 0.042
86 | TTAATCCCGT | 1.04 ± 0.048
87 | TTAATCGTGC | 0.98 ± 0.043
88 | TTAATCTGAG | 1.02 ± 0.012
89 | TTAATGCTAT | 0.9836 ± 0.0043
90 | TTAATGGGGC | 1.01 ± 0.061
91 | TTAATGGGGT | 1 ± 0.039
92 | TTAATGGTTA | 1.02 ± 0.029
93 | TTAATGTTGT | 1 ± 0.035
94 | TTAATTCATG | 1.01 ± 0.017
95 | TTAATTGGGG | 1.06 ± 0.1
96 | TTAATTTATC | 0.9982 ± 0.0026
97 | TTAATTTGGT | 0.971 ± 0.03
98 | TTACAAGGGC | 1.013 ± 0.0087
99 | TTACAAGTTT | 1.14 ± 0.19
100 | TTACACAGGT | 1.12 ± 0.067
